Ends that are not written are not given here. * marks the point of attachment. C18 diacid = O=C(O)CCCCCCCCCCCCCCCCC(=O)*

Sequences and labels used below:
T1: human calcitonin receptor (human, UniProt P30988 25-474)
T1 construct: whole, on cells; also called hCT-R; hCTR
T1 sequence (looked up): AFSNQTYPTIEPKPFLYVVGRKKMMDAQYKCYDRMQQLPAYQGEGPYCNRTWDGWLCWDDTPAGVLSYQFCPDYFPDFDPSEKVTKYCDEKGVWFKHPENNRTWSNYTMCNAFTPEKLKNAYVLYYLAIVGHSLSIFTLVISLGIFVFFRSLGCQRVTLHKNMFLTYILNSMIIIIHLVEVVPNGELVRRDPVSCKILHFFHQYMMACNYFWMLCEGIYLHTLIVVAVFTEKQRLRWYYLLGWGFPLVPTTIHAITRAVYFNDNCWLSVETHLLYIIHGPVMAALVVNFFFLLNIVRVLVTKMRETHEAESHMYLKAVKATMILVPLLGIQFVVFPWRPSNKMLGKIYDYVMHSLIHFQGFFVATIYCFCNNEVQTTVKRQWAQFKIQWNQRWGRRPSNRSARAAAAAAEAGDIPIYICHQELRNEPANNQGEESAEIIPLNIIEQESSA

B1: [N-terminal(C18 diacid), 4P, 9V]mimylin (peptide)
peptide: {C18 diacid}-EASPLSTAVLGRLSAELHELATLPRTETGPESP-NH2
SMILES: CC(C)C[C@H](NC(=O)[C@H](CCC(=O)O)NC(=O)[C@H](Cc1c[nH]cn1)NC(=O)[C@H](CC(C)C)NC(=O)[C@H](CCC(=O)O)NC(=O)[C@H](C)NC(=O)[C@H](CO)NC(=O)[C@H](CC(C)C)NC(=O)[C@H](CCCNC(=N)N)NC(=O)CNC(=O)[C@H](CC(C)C)NC(=O)[C@@H](NC(=O)[C@H](C)NC(=O)[C@@H](NC(=O)[C@H](CO)NC(=O)[C@H](CC(C)C)NC(=O)[C@@H]1CCCN1C(=O)[C@H](CO)NC(=O)[C@H](C)NC(=O)[C@H](CCC(=O)O)NC(=O)CCCCCCCCCCCCCCCCC(=O)O)[C@@H](C)O)C(C)C)C(=O)N[C@@H](C)C(=O)N[C@H](C(=O)N[C@@H](CC(C)C)C(=O)N1CCC[C@H]1C(=O)N[C@@H](CCCNC(=N)N)C(=O)N[C@H](C(=O)N[C@@H](CCC(=O)O)C(=O)N[C@H](C(=O)NCC(=O)N1CCC[C@H]1C(=O)N[C@@H](CCC(=O)O)C(=O)N[C@@H](CO)C(=O)N1CCC[C@H]1C(N)=O)[C@@H](C)O)[C@@H](C)O)[C@@H](C)O
notes: also called Ex. #30
B2: [N-terminal(C18 diacid), 5I, 9I, 10I, 20I]mimylin (peptide)
peptide: {C18 diacid}-EASEISTAIIGRLSAELHEIATLPRTETGPESP-NH2
SMILES: CC[C@H](C)[C@H](NC(=O)[C@H](C)NC(=O)[C@@H](NC(=O)[C@H](CO)NC(=O)[C@@H](NC(=O)[C@H](CCC(=O)O)NC(=O)[C@H](CO)NC(=O)[C@H](C)NC(=O)[C@H](CCC(=O)O)NC(=O)CCCCCCCCCCCCCCCCC(=O)O)[C@@H](C)CC)[C@@H](C)O)C(=O)N[C@H](C(=O)NCC(=O)N[C@@H](CCCNC(=N)N)C(=O)N[C@@H](CC(C)C)C(=O)N[C@@H](CO)C(=O)N[C@@H](C)C(=O)N[C@@H](CCC(=O)O)C(=O)N[C@@H](CC(C)C)C(=O)N[C@@H](Cc1c[nH]cn1)C(=O)N[C@@H](CCC(=O)O)C(=O)N[C@H](C(=O)N[C@@H](C)C(=O)N[C@H](C(=O)N[C@@H](CC(C)C)C(=O)N1CCC[C@H]1C(=O)N[C@@H](CCCNC(=N)N)C(=O)N[C@H](C(=O)N[C@@H](CCC(=O)O)C(=O)N[C@H](C(=O)NCC(=O)N1CCC[C@H]1C(=O)N[C@@H](CCC(=O)O)C(=O)N[C@@H](CO)C(=O)N1CCC[C@H]1C(N)=O)[C@@H](C)O)[C@@H](C)O)[C@@H](C)O)[C@@H](C)CC)[C@@H](C)CC
notes: also called Ex. #77
B3: [N-terminal(C18 diacid), 3P, 9V]mimylin (peptide)
peptide: {C18 diacid}-EAPELSTAVLGRLSAELHELATLPRTETGPESP-NH2
SMILES: CC(C)C[C@H](NC(=O)[C@H](CCC(=O)O)NC(=O)[C@H](Cc1c[nH]cn1)NC(=O)[C@H](CC(C)C)NC(=O)[C@H](CCC(=O)O)NC(=O)[C@H](C)NC(=O)[C@H](CO)NC(=O)[C@H](CC(C)C)NC(=O)[C@H](CCCNC(=N)N)NC(=O)CNC(=O)[C@H](CC(C)C)NC(=O)[C@@H](NC(=O)[C@H](C)NC(=O)[C@@H](NC(=O)[C@H](CO)NC(=O)[C@H](CC(C)C)NC(=O)[C@H](CCC(=O)O)NC(=O)[C@@H]1CCCN1C(=O)[C@H](C)NC(=O)[C@H](CCC(=O)O)NC(=O)CCCCCCCCCCCCCCCCC(=O)O)[C@@H](C)O)C(C)C)C(=O)N[C@@H](C)C(=O)N[C@H](C(=O)N[C@@H](CC(C)C)C(=O)N1CCC[C@H]1C(=O)N[C@@H](CCCNC(=N)N)C(=O)N[C@H](C(=O)N[C@@H](CCC(=O)O)C(=O)N[C@H](C(=O)NCC(=O)N1CCC[C@H]1C(=O)N[C@@H](CCC(=O)O)C(=O)N[C@@H](CO)C(=O)N1CCC[C@H]1C(N)=O)[C@@H](C)O)[C@@H](C)O)[C@@H](C)O
notes: also called Ex. #29
B4: [N-terminal(C18 diacid), 2P, 9V]mimylin (peptide)
peptide: {C18 diacid}-EPSELSTAVLGRLSAELHELATLPRTETGPESP-NH2
SMILES: CC(C)C[C@H](NC(=O)[C@H](CCC(=O)O)NC(=O)[C@H](Cc1c[nH]cn1)NC(=O)[C@H](CC(C)C)NC(=O)[C@H](CCC(=O)O)NC(=O)[C@H](C)NC(=O)[C@H](CO)NC(=O)[C@H](CC(C)C)NC(=O)[C@H](CCCNC(=N)N)NC(=O)CNC(=O)[C@H](CC(C)C)NC(=O)[C@@H](NC(=O)[C@H](C)NC(=O)[C@@H](NC(=O)[C@H](CO)NC(=O)[C@H](CC(C)C)NC(=O)[C@H](CCC(=O)O)NC(=O)[C@H](CO)NC(=O)[C@@H]1CCCN1C(=O)[C@H](CCC(=O)O)NC(=O)CCCCCCCCCCCCCCCCC(=O)O)[C@@H](C)O)C(C)C)C(=O)N[C@@H](C)C(=O)N[C@H](C(=O)N[C@@H](CC(C)C)C(=O)N1CCC[C@H]1C(=O)N[C@@H](CCCNC(=N)N)C(=O)N[C@H](C(=O)N[C@@H](CCC(=O)O)C(=O)N[C@H](C(=O)NCC(=O)N1CCC[C@H]1C(=O)N[C@@H](CCC(=O)O)C(=O)N[C@@H](CO)C(=O)N1CCC[C@H]1C(N)=O)[C@@H](C)O)[C@@H](C)O)[C@@H](C)O
notes: also called Ex. #28
B5: [N-terminal(C18 diacid), 5H]mimylin (peptide)
peptide: {C18 diacid}-EASEHSTAALGRLSAELHELATLPRTETGPESP-NH2
SMILES: CC(C)C[C@H](NC(=O)[C@H](C)NC(=O)[C@H](C)NC(=O)[C@@H](NC(=O)[C@H](CO)NC(=O)[C@H](Cc1c[nH]cn1)NC(=O)[C@H](CCC(=O)O)NC(=O)[C@H](CO)NC(=O)[C@H](C)NC(=O)[C@H](CCC(=O)O)NC(=O)CCCCCCCCCCCCCCCCC(=O)O)[C@@H](C)O)C(=O)NCC(=O)N[C@@H](CCCNC(=N)N)C(=O)N[C@@H](CC(C)C)C(=O)N[C@@H](CO)C(=O)N[C@@H](C)C(=O)N[C@@H](CCC(=O)O)C(=O)N[C@@H](CC(C)C)C(=O)N[C@@H](Cc1c[nH]cn1)C(=O)N[C@@H](CCC(=O)O)C(=O)N[C@@H](CC(C)C)C(=O)N[C@@H](C)C(=O)N[C@H](C(=O)N[C@@H](CC(C)C)C(=O)N1CCC[C@H]1C(=O)N[C@@H](CCCNC(=N)N)C(=O)N[C@H](C(=O)N[C@@H](CCC(=O)O)C(=O)N[C@H](C(=O)NCC(=O)N1CCC[C@H]1C(=O)N[C@@H](CCC(=O)O)C(=O)N[C@@H](CO)C(=O)N1CCC[C@H]1C(N)=O)[C@@H](C)O)[C@@H](C)O)[C@@H](C)O
notes: also called Ex. #17
B6: [N-terminal(C18 diacid), 5I, 9I]mimylin (peptide)
peptide: {C18 diacid}-EASEISTAILGRLSAELHELATLPRTETGPESP-NH2
SMILES: CC[C@H](C)[C@H](NC(=O)[C@H](C)NC(=O)[C@@H](NC(=O)[C@H](CO)NC(=O)[C@@H](NC(=O)[C@H](CCC(=O)O)NC(=O)[C@H](CO)NC(=O)[C@H](C)NC(=O)[C@H](CCC(=O)O)NC(=O)CCCCCCCCCCCCCCCCC(=O)O)[C@@H](C)CC)[C@@H](C)O)C(=O)N[C@@H](CC(C)C)C(=O)NCC(=O)N[C@@H](CCCNC(=N)N)C(=O)N[C@@H](CC(C)C)C(=O)N[C@@H](CO)C(=O)N[C@@H](C)C(=O)N[C@@H](CCC(=O)O)C(=O)N[C@@H](CC(C)C)C(=O)N[C@@H](Cc1c[nH]cn1)C(=O)N[C@@H](CCC(=O)O)C(=O)N[C@@H](CC(C)C)C(=O)N[C@@H](C)C(=O)N[C@H](C(=O)N[C@@H](CC(C)C)C(=O)N1CCC[C@H]1C(=O)N[C@@H](CCCNC(=N)N)C(=O)N[C@H](C(=O)N[C@@H](CCC(=O)O)C(=O)N[C@H](C(=O)NCC(=O)N1CCC[C@H]1C(=O)N[C@@H](CCC(=O)O)C(=O)N[C@@H](CO)C(=O)N1CCC[C@H]1C(N)=O)[C@@H](C)O)[C@@H](C)O)[C@@H](C)O
notes: also called Ex. #25
B7: [30S, 31G]mimylin (peptide)
peptide: EASELSTAALGRLSAELHELATLPRTETGSGSP-NH2
notes: backbone without side chain; also called Ex. #22bb; 22bb
B8: [N-terminal(C18 diacid), 5I]mimylin (peptide)
peptide: {C18 diacid}-EASEISTAALGRLSAELHELATLPRTETGPESP-NH2
SMILES: CC[C@H](C)[C@H](NC(=O)[C@H](CCC(=O)O)NC(=O)[C@H](CO)NC(=O)[C@H](C)NC(=O)[C@H](CCC(=O)O)NC(=O)CCCCCCCCCCCCCCCCC(=O)O)C(=O)N[C@@H](CO)C(=O)N[C@H](C(=O)N[C@@H](C)C(=O)N[C@@H](C)C(=O)N[C@@H](CC(C)C)C(=O)NCC(=O)N[C@@H](CCCNC(=N)N)C(=O)N[C@@H](CC(C)C)C(=O)N[C@@H](CO)C(=O)N[C@@H](C)C(=O)N[C@@H](CCC(=O)O)C(=O)N[C@@H](CC(C)C)C(=O)N[C@@H](Cc1c[nH]cn1)C(=O)N[C@@H](CCC(=O)O)C(=O)N[C@@H](CC(C)C)C(=O)N[C@@H](C)C(=O)N[C@H](C(=O)N[C@@H](CC(C)C)C(=O)N1CCC[C@H]1C(=O)N[C@@H](CCCNC(=N)N)C(=O)N[C@H](C(=O)N[C@@H](CCC(=O)O)C(=O)N[C@H](C(=O)NCC(=O)N1CCC[C@H]1C(=O)N[C@@H](CCC(=O)O)C(=O)N[C@@H](CO)C(=O)N1CCC[C@H]1C(N)=O)[C@@H](C)O)[C@@H](C)O)[C@@H](C)O)[C@@H](C)O
notes: also called Ex. #8

This test addresses T1, human calcitonin receptor. Nature of the test: whole-cell competition vs 125I-human calcitonin (Assay VIIa). As to the method:
The binding assay was performed using a BHK tk'ts 13 cell line was stably transfected with the human calcitonin receptor, and a CRE-responsive luciferase reporter gene.
The day before the assay the cells were Seeded into Poly-D-Lysin coated 384W Opaque White, BD BioCoat plates (10000 cells/well) and Incubated overnight at 37° C., 5% CO2, 95% humidity. […] The morning after, the plates were washed three times in HBSS (4° C.), and lyzed in Lysis buffer (0.1 M NaOH), 1% SDS. Scintillation cocktail (MicroScint40®) was added and the plates were shaken at 500 rpm for a short period. The plate was incubated at room temperature in the dark for 1 hour and Read on a TopCounter™ (Packard). The IC₅₀ was calculated using (one site binding competition analysis) GraphPad Prism5 as a measure of receptor affinity.
Turning to EASELSTAALGRLSAELHELATLPRTETGPESP-NH2 (also called Ex. #1) [mimylin], the half-inhibitory concentration (IC50) was determined as 0.431 nM.
In the case of B1 it was 0.478 nM; in that of B2, 1.1 nM.
In the case of B3 it was 0.309 nM.
On to B4, for which the IC50 turned out to be 0.351 nM.
In the case of B5 it was 0.577 nM; in that of B6, 0.413 nM; in that of B7, 0.481 nM.
In the case of B8 it was 0.368 nM.
